The values below come from article PMC3673994 (PLoS ONE, 2013).

This experiment deals with T1, human mtRNase P (TRMT10C-SDR5C1 and PRORP) (Homo sapiens, UniProt Q7L0Y3+Q99714).
T1 construct: made in house; host or cells: E. coli
T1 sequence (Q99714 1-261): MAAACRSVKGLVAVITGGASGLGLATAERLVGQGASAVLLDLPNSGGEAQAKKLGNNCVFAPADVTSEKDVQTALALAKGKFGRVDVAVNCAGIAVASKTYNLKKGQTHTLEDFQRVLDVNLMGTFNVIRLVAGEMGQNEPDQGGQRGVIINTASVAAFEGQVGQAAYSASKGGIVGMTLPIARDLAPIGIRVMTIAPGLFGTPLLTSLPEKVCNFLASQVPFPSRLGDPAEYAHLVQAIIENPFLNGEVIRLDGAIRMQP
T1 sequence (Q7L0Y3 40-403 partner): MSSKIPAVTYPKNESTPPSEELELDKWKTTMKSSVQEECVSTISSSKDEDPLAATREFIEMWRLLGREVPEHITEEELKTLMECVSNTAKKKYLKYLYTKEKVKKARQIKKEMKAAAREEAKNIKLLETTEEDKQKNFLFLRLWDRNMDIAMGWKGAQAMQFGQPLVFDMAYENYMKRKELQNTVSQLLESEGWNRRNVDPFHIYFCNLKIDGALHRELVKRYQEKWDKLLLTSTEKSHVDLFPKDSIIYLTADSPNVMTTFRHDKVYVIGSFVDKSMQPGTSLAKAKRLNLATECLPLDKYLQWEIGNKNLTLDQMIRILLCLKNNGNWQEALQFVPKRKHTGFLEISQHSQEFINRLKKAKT
In words: RNase P assay, (mt)tRNA^His precursor cleavage. The class given is biochemical. The conditions noted are these: freshly dissolved fragments, up to 10 µM; three independent experiments. An excerpt: Samples for analysis were withdrawn at defined intervals or at known linear-range time-points and phosphor imaging data quantitatively analyzed with ImageQuant TL 7 (GE Healthcare).

In the case of “Aβ1–28: synthetic Aβ peptide fragment, amino acids 1–28 (rPeptide)”, the “effect on tRNA 5′-end processing by mtRNase P” value is “none of the two affected”. Turning to “Aβ25–35: synthetic Aβ peptide fragment corresponding to amino acids 25–35 (rPeptide) (GSNKGAIIGLM; Amyloid-beta protein 40; UniProt P05067 696-706, looked up, fragment)”, the “effect on tRNA 5′-end processing by mtRNase P” value is “none of the two affected”.
